Source: US8389575B2, “Control of enzymatic peracid generation” (E.I. du Pont de Nemours and Company, priority 2008, dated 2013)

How the values were obtained:
[1] = Dependence of specific activity on pH for hydrolysis of triacetin by CE-7 esterases/perhydrolases (cell extracts of E. coli KLP18 transformants); type: biochemical; conditions: 200 mM triacetin, 25° C.
Protocol: A cell extract of an E. coli transformant expressing perhydrolase from Thermotoga neapolitana (KLP18/pSW196), Thermotoga maritima MSB8 (KLP18/pSW207), Bacillus pumilus PS213 (KLP1S/pSW195), Bacillus subtilis BE1010 (KLP18/pSW189), Bacillus subtilis ATCC® 31954™ (KLP18/pSW194), or Bacillus licheniformis ATCC® 14580™ (KLP18/pSW191) was prepared by passing a suspension of cell paste (20 wt % wet cell weight) in 0.05 M potassium phosphate buffer (pH 7.0) containing dithiothreitol (1 mM) twice through a French press having a working pressure of 16,000 psi (˜110 MPa). The crude extract was then centrifuged at 20,000×g to remove cellular debris, producing a clarified cell extract that was assayed for total soluble protein (Bicinchoninic Acid Kit for Protein Determination, Sigma Aldrich catalog #BCA1-KT). A portion of the clarified Thermotoga maritima MSB8 or Thermotoga neapolitana perhydrolase-containing extract was additionally heated for 20 min at 75° C., followed immediately by cooling in an ice/water bath to 5° C. The resulting mixture was centrifuged to remove precipitated protein, and the supernatant collected and assayed for total soluble protein as before.
Reactions (10 mL total volume) containing triacetin (200 mM) and cell extract supernatant (prepared as described above) were run at 25° C. and at a pH between 4.5 and 10.0, using the buffers and buffer concentrations listed in Table 5. The concentration of extract total protein (with or without heat-treatment to denature and precipitate E. coli-derived protein) was chosen to produce an ca. 50 mM decrease in triacetin concentration over 30 min (typically from 0.025 mg/mL to 0.40 mg/mL of total extract protein, dependent on the perhydrolase). A control reaction for each reaction condition was run to determine the concentration of triacetin hydrolyzed in the absence of added extract protein. Samples (100 μL) were removed at predetermined times and immediately added to 297 μL of dd H2O and 3 μL of 6N HCL. The resulting solution was mixed, then filtered using a 30,000 NMWL filter (Millipore) using a microcentrifuge for 2 min at 12,000 rpm. An aliquot of the filtrate (100 μL) was added to 150 μL of 0.417 mM N,N-diethyl meta-toluamide (external standard) in acetonitrile, and the resulting solution analyzed for triacetin by HPLC using a Supelco Discovery C8 column (25 cm×4.0 mm, 5 um; Supelco #59353-U40) and an isocratic mobile phase of 40% acetonitrile/60% distilled water at a flow rate of 1 mL/min. Triacetin was measured by UV detection at 225 nm.

[2] = Peracetic acid production by perhydrolases, control by initial reaction pH in sodium citrate buffer; type: biochemical; conditions: triacetin 100 mM, 0.050 mg/mL extract total protein, 25° C.
Protocol: A cell extract of a transformant expressing perhydrolase from Bacillus pumilus PS213 (KLP18/pSW195), Thermotoga maritima MSB8 (KLP18/pSW207), Thermotoga neapolitana (KLP18/pSW196), or Bacillus subtilis ATCC® 31954™ (KLP18/pSW194) was prepared by passing a suspension of cell paste (20 wt % wet cell weight) in 0.05 M potassium phosphate buffer (pH 7.0) containing dithiothreitol (1 mM) twice through a French press having a working pressure of 16,000 psi (˜110 MPa). The crude extract was then centrifuged at 20,000×g to remove cellular debris, producing a clarified cell extract that was assayed for total soluble protein (Bicinchoninic Acid Kit for Protein Determination, Sigma Aldrich catalog #BCA1-KT). The supernatant was frozen in dry ice and stored at −80° C.
Reactions (10 mL total volume) containing triacetin, hydrogen peroxide and centrifuged cell extract supernatant (prepared as described above) in 50 mM sodium citrate buffer (initial pH 7.2 or 6.5) were run at 25° C. A control reaction for each reaction condition was run to determine the concentration of peracetic acid produced by chemical perhydrolysis of triacetin by hydrogen peroxide in the absence of added extract protein (data not shown). Determination of the concentration of peracetic acid in the reaction mixtures was performed according to the method described by Karst et al., supra.

[3] = pH 7.0, potassium phosphate 0.15 M
[4] = pH 7.5, potassium phosphate 0.15 M
[5] = pH 8.0, potassium phosphate 0.20 M
[6] = pH 8.5, Tris(hydroxymethyl)aminomethane 0.20 M
[7] = pH 9.0, Tris(hydroxymethyl)aminomethane 0.20 M
[8] = initial pH 6.5, sodium citrate 50 mM, H2O2 100 mM
[9] = initial pH 6.5, sodium citrate 50 mM, H2O2 250 mM
[10] = initial pH 7.2, sodium citrate 50 mM, H2O2 100 mM
[11] = initial pH 7.2, sodium citrate 50 mM, H2O2 250 mM

B1: Thermotoga maritima MSB8 perhydrolase: acetyl xylan esterase with perhydrolase activity from Thermotoga maritima MSB8 (SEQ ID NO: 16), cell extract of E. coli KLP18/pSW207 (protein, listed as Thermotoga maritima)
chain: MAFFDLPLEELKKYRPERYEEKDFDEFWEETLAESEKFPLDPVFERMESHLKTVEAYDVTFSGYRGQRIKGWLLVPKLEEEKLPCVVQYIGYNGGRGFPHDWLFWPSMGYICFVMDTRGQGSGWLKGDTPDYPEGPVDPQYPGFMTRGILDPRTYYYRRVFTDAVRAVEAAASFPQVDQERIVIAGGSQGGGIALAVSALSKKAKALLCDVPFLCHFRRAVQLVDTHPYAEITNFLKTHRDKEEIVFRTLSYFDGVNFAARAKIPALFSVGLMDNICPPSTVFAAYNYYAGPKEIRIYPYNNHEGGGSFQAVEQVKFLKKLFEKG
specific activity (mmol triacetin/min/mg total extract protein) ([1]; pH 5.5, sodium acetate 0.15 M): 1.4 mmol triacetin/min/mg total extract protein
specific activity (mmol triacetin/min/mg total extract protein) ([1]; pH 6.0, sodium citrate 0.15 M): 4.3 mmol triacetin/min/mg total extract protein
specific activity (mmol triacetin/min/mg total extract protein) ([1]; pH 6.5, sodium citrate 0.15 M): 10.3 mmol triacetin/min/mg total extract protein
specific activity (mmol triacetin/min/mg total extract protein) [1, 3]: 16.0 mmol triacetin/min/mg total extract protein
specific activity (mmol triacetin/min/mg total extract protein) [1, 4]: 19.8 mmol triacetin/min/mg total extract protein
specific activity (mmol triacetin/min/mg total extract protein) [1, 5]: 28.7 mmol triacetin/min/mg total extract protein
specific activity (mmol triacetin/min/mg total extract protein) [1, 6]: 38.8 mmol triacetin/min/mg total extract protein
specific activity (mmol triacetin/min/mg total extract protein) [1, 7]: 57.1 mmol triacetin/min/mg total extract protein
specific activity (mmol triacetin/min/mg total extract protein) ([1]; pH 9.5, glycine 0.20 M): 21.6 mmol triacetin/min/mg total extract protein
PAA, 1 min (ppm) [2, 8]: 53 ppm
PAA, 5 min (ppm) [2, 8]: 279 ppm
PAA, 30 min (ppm) [2, 8]: 1540 ppm
PAA, 1 min (ppm) [2, 9]: 95 ppm
PAA, 5 min (ppm) [2, 9]: 742 ppm
PAA, 30 min (ppm) [2, 9]: 2446 ppm
PAA, 1 min (ppm) [2, 10]: 210 ppm
PAA, 5 min (ppm) [2, 10]: 610 ppm
PAA, 30 min (ppm) [2, 10]: 1995 ppm
PAA, 1 min (ppm) [2, 11]: 635 ppm
PAA, 5 min (ppm) [2, 11]: 1725 ppm
PAA, 30 min (ppm) [2, 11]: 3565 ppm

B2: Thermotoga neapolitana perhydrolase: acetyl xylan esterase with perhydrolase activity from Thermotoga neapolitana (SEQ ID NO: 14), cell extract of E. coli KLP18/pSW196 (protein, listed as Thermotoga neapolitana)
chain: MAFFDMPLEELKKYRPERYEEKDFDEFWRETLKESEGFPLDPVFEKVDFHLKTVETYDVTFSGYRGQRIKGWLLVPKLAEEKLPCVVQYIGYNGGRGFPHDWLFWPSMGYICFVMDTRGQGSGWMKGDTPDYPEGPVDPQYPGFMTRGILDPGTYYYRRVFVDAVRAVEAAISFPRVDSRKVVVAGGSQGGGIALAVSALSNRVKALLCDVPFLCHFRRAVQLVDTHPYVEITNFLKTHRDKEEIVFRTLSYFDGVNFAARAKVPALFSVGLMDTICPPSTVFAAYNHYAGPKEIRIYPYNNHEGGGSFQAIEQVKFLKRLFEEG
specific activity (mmol triacetin/min/mg total extract protein) ([1]; pH 5.5, sodium acetate 0.15 M): 0 mmol triacetin/min/mg total extract protein
specific activity (mmol triacetin/min/mg total extract protein) ([1]; pH 6.0, sodium citrate 0.15 M): 0.4 mmol triacetin/min/mg total extract protein
specific activity (mmol triacetin/min/mg total extract protein) ([1]; pH 6.5, sodium citrate 0.15 M): 1.7 mmol triacetin/min/mg total extract protein
specific activity (mmol triacetin/min/mg total extract protein) [1, 3]: 3.3 mmol triacetin/min/mg total extract protein
specific activity (mmol triacetin/min/mg total extract protein) [1, 4]: 5.3 mmol triacetin/min/mg total extract protein
specific activity (mmol triacetin/min/mg total extract protein) [1, 5]: 5.8 mmol triacetin/min/mg total extract protein
specific activity (mmol triacetin/min/mg total extract protein) [1, 6]: 11.3 mmol triacetin/min/mg total extract protein
specific activity (mmol triacetin/min/mg total extract protein) [1, 7]: 12.5 mmol triacetin/min/mg total extract protein
specific activity (mmol triacetin/min/mg total extract protein) ([1]; pH 9.5, glycine 0.20 M): 12.0 mmol triacetin/min/mg total extract protein
specific activity (mmol triacetin/min/mg total extract protein) ([1]; pH 10.0, glycine 0.20 M): 0 mmol triacetin/min/mg total extract protein
PAA, 1 min (ppm) [2, 8]: 221 ppm
PAA, 5 min (ppm) [2, 8]: 607 ppm
PAA, 30 min (ppm) [2, 8]: 1925 ppm
PAA, 1 min (ppm) [2, 9]: 434 ppm
PAA, 5 min (ppm) [2, 9]: 1260 ppm
PAA, 30 min (ppm) [2, 9]: 2016 ppm
PAA, 1 min (ppm) [2, 10]: 798 ppm
PAA, 5 min (ppm) [2, 10]: 1748 ppm
PAA, 30 min (ppm) [2, 10]: 2500 ppm
PAA, 1 min (ppm) [2, 11]: 1790 ppm
PAA, 5 min (ppm) [2, 11]: 2860 ppm
PAA, 30 min (ppm) [2, 11]: 3820 ppm
